# Laboratory results reported in paper PMC6155056 (Science Advances, 2018).
# T1: CVA10 mature virion (strain CVA10-FJ-01) (Coxsackievirus A10, strain CVA10-FJ-01 …, strain)
# T1 chain 1: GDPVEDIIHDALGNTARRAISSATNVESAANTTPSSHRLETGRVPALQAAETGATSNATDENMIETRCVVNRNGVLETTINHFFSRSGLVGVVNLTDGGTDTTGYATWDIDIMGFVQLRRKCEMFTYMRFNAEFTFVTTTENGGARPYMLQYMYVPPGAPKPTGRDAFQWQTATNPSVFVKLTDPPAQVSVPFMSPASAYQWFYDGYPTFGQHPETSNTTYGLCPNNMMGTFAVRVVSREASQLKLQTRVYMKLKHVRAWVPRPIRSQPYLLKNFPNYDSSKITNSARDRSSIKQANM
# T1 chain 2: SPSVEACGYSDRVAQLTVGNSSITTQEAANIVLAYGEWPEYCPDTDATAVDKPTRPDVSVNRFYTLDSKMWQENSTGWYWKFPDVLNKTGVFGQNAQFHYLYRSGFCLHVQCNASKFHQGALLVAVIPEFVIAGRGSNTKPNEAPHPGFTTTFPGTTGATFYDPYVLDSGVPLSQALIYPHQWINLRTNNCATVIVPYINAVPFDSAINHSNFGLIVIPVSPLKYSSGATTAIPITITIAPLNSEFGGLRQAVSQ
# T1 chain 3: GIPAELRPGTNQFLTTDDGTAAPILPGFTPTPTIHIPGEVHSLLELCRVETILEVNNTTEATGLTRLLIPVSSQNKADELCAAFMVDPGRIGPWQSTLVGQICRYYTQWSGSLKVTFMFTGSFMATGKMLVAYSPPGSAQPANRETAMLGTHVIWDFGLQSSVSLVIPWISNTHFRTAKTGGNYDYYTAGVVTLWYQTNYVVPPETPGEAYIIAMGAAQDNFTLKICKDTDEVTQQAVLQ
# T1 chain 4: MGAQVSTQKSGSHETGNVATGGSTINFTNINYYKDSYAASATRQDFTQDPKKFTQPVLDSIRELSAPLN
# T2: CVA10 A-particle (strain CVA10-FJ-01) (Coxsackievirus A10, strain CVA10-FJ-01 …, strain)
# T2 chain 1: T1 chain 1
# T2 chain 2: T1 chain 2
# T2 chain 3: T1 chain 3
# T3: CVA10 procapsid (strain CVA10-FJ-01) (Coxsackievirus A10, strain CVA10-FJ-01 …, strain)
# T3 chain 1: T1 chain 1
# T3 chain 2: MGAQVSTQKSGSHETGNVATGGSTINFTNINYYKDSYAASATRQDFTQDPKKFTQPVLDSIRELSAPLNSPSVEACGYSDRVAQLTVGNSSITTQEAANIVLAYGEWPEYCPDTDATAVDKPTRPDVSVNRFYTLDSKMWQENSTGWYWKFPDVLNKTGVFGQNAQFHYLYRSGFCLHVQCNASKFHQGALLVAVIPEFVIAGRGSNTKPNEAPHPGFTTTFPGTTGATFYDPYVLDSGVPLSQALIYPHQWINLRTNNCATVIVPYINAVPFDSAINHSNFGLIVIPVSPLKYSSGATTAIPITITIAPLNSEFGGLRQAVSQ
# T3 chain 3: T1 chain 3
# T4: CVA10 capsid protein VP1 (strain CVA10-FJ-01) (Coxsackievirus A10, strain CVA10-FJ-01 …, strain)
# T4 chain: T1 chain 1
# T5: CVA10 capsid protein VP2 (strain CVA10-FJ-01) (Coxsackievirus A10, strain CVA10-FJ-01 …, strain)
# T5 chain: T1 chain 2
# T6: CVA10 capsid protein VP3 (strain CVA10-FJ-01) (Coxsackievirus A10, strain CVA10-FJ-01 …, strain)
# T6 chain: T1 chain 3
# B1: Fab 2G8 (Fab, V domains shown)
# VH: EVQLQQSGPDLVKTGASVRVSCRASGYSFTSYYIHWVRLNHGKSLEWIGYINCYNGDITYNQKFKGKASFTLDTSSSTAYMEFNRLTSEDSAVYYCTRERYGTPHYHFDVWGAGP
# VL: DVLMTQTPLSLPVSLGHQASISCRSSQSIVHSNGNTYLEWYLQKPGQSPKLLIYTVSNRFSGVPDRFSGSGSGTDFTLRITSVEAEDLGVYYCFQGSHIPYTFGGGTKLEIK
# Assays:
# Assay in all cases: cryo-EM structure
# [1] = target: T1, CVA10 mature virion (strain CVA10-FJ-01)
# [2] = target: T2, CVA10 A-particle (strain CVA10-FJ-01)
# [3] = target: T3, CVA10 procapsid (strain CVA10-FJ-01)
# [4] = target: T4, CVA10 capsid protein VP1 (strain …)
# [5] = target: T5, CVA10 capsid protein VP2 (strain …)
# [6] = target: T6, CVA10 capsid protein VP3 (strain …)
binder,measurement,setting,value
B1,stoichiometry N,[1],60 copies per particle
same,stoichiometry N,[2],60 copies per particle
same,stoichiometry N,[3],60 copies per particle
same,binding result,[4],binds
same,binding result,[5],binds
same,binding result,[6],binds
